Laboratory results taken from patent publication US11407840B2, “Antibodies to M(H)DM2/4 and their use in diagnosing and treating cancer” (NomoCan Pharmaceuticals LLC, priority 2017, dated 2022).

What was measured:
[1] = test system: normal human peripheral blood mononuclear cells (PBMCs); test: Cell-ELISA, intact normal cells; format: binding; details: freshly isolated PBMCs; FIG. 6
Method: Cell-ELISA Methodology: 8,000-10,000 cells/well of a 96-well microplate were grown overnight. The next day, unbound cells were washed off with sterile 1× PBS. The cells in each well were fixed with freshly prepared 4% buffered paraformaldehyde (pH 7.2) for 1 hour followed by 3 washes with 1× PBS. The wells were then blocked with 5% BSA in PBS (100 ? /well) for 2 hours at room temperature. Microplate wells were then washed 5 times with 300 ? of ice cold 1× PBS. MAbs NMC-103, NMC-204 or NMC-303 at 1 μg/mL in 1% BSA/PBS were then incubated with various cancer or normal untransformed cells for 2 hours at room temperature. Wells were then washed with 300 ? of ice-cold 1× PBS for 5 times and corresponding secondary antibody HRP-GaM F(ab′)2 diluted 1:2500 or 1:5000 in PBS with 1% BSA were added at 100 ? /well for 1 hour at room temperature followed by washing 5 times with 300 ? of ice-cold 1× PBS. TMB Substrate Solution (1-StepTM Ultra TMB-ELISA, ThermoFisher, Cat. No. 34028) was then added at 50 ? ? to each microplate well and incubated at room temperature for 30 minutes. The reaction was stopped by addition of 50 μL, of stop solution (ThermoFisher, Cat. No. SSO4) to each well and absorbance of each well was measured at OD450 nm. The absorbance value of each experimental well was corrected for the absorbance value obtained from wells treated with isotype-identical mAbs included in each experiment. The results are thus expressed as “relative binding”.

[2] = test system: mouse Lewis Lung LL/2 cancer cells; test: Flow cytometry, EDTA versus trypsin, intact versus permeabilized cells; format: binding; details: antibody 5 μg/ml, FIG. 11
Method: Flow Cytometry Methodology: Cells that had been allowed to grow to about 80% confluency in 25 cm^2 tissue culture flasks were released with either EDTA (10 mmols; pH7.2; 5 min, 37° C.) or Trypsin (Gibco TrypLE Express), fixed with freshly made 4% buffered (pH 7.4) paraformaldehyde for 1 h at room temperature, washed several times with a large volume of ice-cold PBS, and blocked for 30 minutes at room temperature with 5% human serum albumin in PBS (intact, non-permeabilized cells). After establishing viability, the cell number was adjusted to 10^6 cells/ml and kept in ice-cold PBS until staining. Another set of the same cells was released with either EDTA or Trypsin and fixed with 4% buffered paraformaldehyde as above, then washed and blocked with 5% human serum albumin in PBS, and was treated separately with Triton X-100 (0.1% in PBS) (International Biotechnologies Inc. 07100) for 5 minutes at room temperature for membrane permeabilization. After washing off the Triton X-100 solution with PBS the cells were adjusted to 10^6 cells/ml and stored in ice-cold PBS. Cells (10^6/ml) from each preparation were then incubated either with 5 μg/ml of mAb to Na+/K+ ATPase ? -1 (Abeam, Cat. No. ab2826), 5 μg/ml of mAb NMC-103, or 5 μg/ml of mAb NMC-204 for 90 min at room temperature. Following primary antibody incubation, cells were washed 3 times with ice-cold PBS followed by incubation with rabbit anti-mouse PE-Cy5 labeled secondary antibody (PE-Cy5-RaM IgG (H&L); Invitrogen, Cat. No. M35018) at room temperature. Sixty minutes later the cells were washed 3 times with PBS and subjected to flow cytometry analysis (BD Canto Flow Cytometry). Controls to establish background fluorescence included the analysis of samples of unstained cells as well as cells that had been processed with secondary antibody under the same conditions as used in the experimental samples.
To further validate that the epitopes of the plasma membrane M(H)DM2 are in fact extracellularly accessible sequences on cancer cells, binding of mAbs NMC-103, NMC-204 and NMC-303 was performed on mouse Lewis Lung LL/2 cancer cells under treatment conditions of EDTA versus trypsin. Both of these conditions were also tested on intact versus permeabilized cells. FIG. 11 panels A, B and C present flow cytometry data on % cells stained with mAbs NMC-103, NMC-204 and anti-Na+/K+ ATPase ? -1, respectively. Each antibody was reacted with cells from four treatment conditions: EDTA-treated intact cells, EDTA-treated permeabilized cells, trypsin-treated intact cells, trypsin-treated permeabilized cells. […] However, when trypsin-treaded cells were permeabilized, the above reduction in binding was compensated by reactivity of the antibodies to intracellular MDM2 or Na+/K+ ATPase a-1.

[3] = EDTA-treated permeabilized cells (Triton X-100)

Molecule	binding to intact normal human PBMCs, cell-ELISA [1]	% cells stained (flow cytometry) ([2]; EDTA-treated intact cells) [%]	% cells stained (flow cytometry) [2, 3] [%]	% cells stained (flow cytometry) ([2]; trypsin-treated intact cells) [%]
NMC-103: mouse monoclonal antibody, IgG1 isotype, binds NMC-P1 (SEQ ID NO:1); VH SEQ ID NO:36, VL SEQ ID NO:37 (antibody, V domains shown, mAb NMC-103 Heavy Chain Variable Region; mAb NMC-103 Light Chain Variable Region) VH: EVQLQESGGGLVQPGGSLRLSCTTSGFTFTHYYMSWVRQPPGKALEWLGFIRNKAKGYTAEYSASVKGRFTISRDNSQSILYLQMNTLRPEDSATYYCARDIGDNWGQGTLVTVSS VL: DIVMTQAAFSNPVTLGTSASISCRSSKNLLHSNGITYLYWYLQRPGQSPQLLISRVSNLASGVPNRFSGSESGTDFTLRISRVEAEDVGVYFCAQLLELPYTFGGGTKLEIK	virtually no binding	70.4	75.8	36.8
NMC-204: mouse monoclonal antibody, IgG3 isotype, binds NMC-P2 (SEQ ID NO:2); VH SEQ ID NO:38, VL SEQ ID NO:39 (antibody, V domains shown, mAb NMC-204 Heavy Chain Variable Region; mAb NMC-204 Light Chain Variable Region) VH: EVQLQESGSVLVRPGASVKLSCKASGDTLSGSWMHWAMQRPGQGLEWIGEIHLNRGTTNYNEKFKGKATVTVDTSSSTAYVDLSSLTSEDSAVYYCARSPGFAYWGQGTLVTVSA VL: GIVMTQAAPSVPVTPGESVSISCRSSKSLLHSNGNSYLYWFLQRPGQSPQLLIYRMSNLASGVPDRFSGSGSGTAFTLRITRVEAEDVGVYYCMQHLEYPFTFGSGTKLEIK	did not react	51.2	52.85	27
